Test [1] has as its target PD-1 (UniProt Q15116 25-167, limits assumed). In words: ELISA, OD mutant/OD WT; A=90-110%. In general terms: In an ELISA, binding on a coated surface is turned into a signal by an enzyme label.
Target sequence in this assay (Q15116 25-167 limits assumed): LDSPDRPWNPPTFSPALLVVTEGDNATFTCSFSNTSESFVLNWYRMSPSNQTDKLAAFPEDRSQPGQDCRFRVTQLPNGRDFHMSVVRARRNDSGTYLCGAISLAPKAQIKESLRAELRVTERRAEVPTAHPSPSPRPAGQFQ
Test [2] addresses T1, PD-1 (UniProt Q15116 25-167, limits assumed). The test is described as follows: ELISA; Cys mutant, no arm.
T1 sequence (Q15116 25-167 limits assumed): as above
Test [3] addresses T1, PD-1. The test is described as follows: ELISA; S13 on the Cys.
The target of test [4] is T1, PD-1. The test is described as follows: ELISA; S9 on the Cys.

B1: anti-PD-1 antibody 2 light chain S52C (antibody, human IgG4 S228P, kappa, V domains shown)
VH: QVQLVESGGGVVQPGRSLRLDCKASGITFSNSGMHWVRQAPGKGLEWVAVIWYDGSKRYYADSVKGRFTISRDNSKNTLFLQMNSLRAEDTAVYYCATNDDYWGQGTLVTVSS
VL: EIVLTQSPATLSLSPGERATLSCRASQSVSSYLAWYQQKPGQAPRLLIYDACNRATGIPARFSGSGSGTDFTLTISSLEPEDFAVYYCQQSSNWPRTFGQGTKVEIKR
Consider B1, for which the “binding activity (OD after mutation/OD wild type)” value with PD-1 [1] was 90 to 110%.

B2: anti-PD-1 antibody 2 light chain S91C (antibody, human IgG4 S228P, kappa, V domains shown)
VH: QVQLVESGGGVVQPGRSLRLDCKASGITFSNSGMHWVRQAPGKGLEWVAVIWYDGSKRYYADSVKGRFTISRDNSKNTLFLQMNSLRAEDTAVYYCATNDDYWGQGTLVTVSS
VL: EIVLTQSPATLSLSPGERATLSCRASQSVSSYLAWYQQKPGQAPRLLIYDASNRATGIPARFSGSGSGTDFTLTISSLEPEDFAVYYCQQCSNWPRTFGQGTKVEIKR
Regarding B2, in the test with PD-1 [1], the “binding activity (OD after mutation/OD wild type)” value fell in the range of 90 to 110%.

B3: anti-PD-1 antibody 2 HC Ala92Cys (antibody, human IgG4 S228P, kappa, V domains shown)
VH: QVQLVESGGGVVQPGRSLRLDCKASGITFSNSGMHWVRQAPGKGLEWVAVIWYDGSKRYYADSVKGRFTISRDNSKNTLFLQMNSLRAEDTCVYYCATNDDYWGQGTLVTVSS
VL: EIVLTQSPATLSLSPGERATLSCRASQSVSSYLAWYQQKPGQAPRLLIYDASNRATGIPARFSGSGSGTDFTLTISSLEPEDFAVYYCQQSSNWPRTFGQGTKVEIKR
modifications: arm on Cys92 as named in each row
As to B3, the “binding activity, % of wild type” value with PD-1 [2] amounted to 85%; with PD-1 [3], 15%; with PD-1 [4], 64.6%.

B4: anti-PD-1 antibody 2 light chain T97C (antibody, human IgG4 S228P, kappa, V domains shown)
VH: QVQLVESGGGVVQPGRSLRLDCKASGITFSNSGMHWVRQAPGKGLEWVAVIWYDGSKRYYADSVKGRFTISRDNSKNTLFLQMNSLRAEDTAVYYCATNDDYWGQGTLVTVSS
VL: EIVLTQSPATLSLSPGERATLSCRASQSVSSYLAWYQQKPGQAPRLLIYDASNRATGIPARFSGSGSGTDFTLTISSLEPEDFAVYYCQQSSNWPRCFGQGTKVEIKR
As to B4, the “binding activity (OD after mutation/OD wild type)” value in the test with PD-1 [1] was in the range of 90 to 110%.

B5: anti-PD-1 antibody 2 light chain S92C (antibody, human IgG4 S228P, kappa, V domains shown)
VH: QVQLVESGGGVVQPGRSLRLDCKASGITFSNSGMHWVRQAPGKGLEWVAVIWYDGSKRYYADSVKGRFTISRDNSKNTLFLQMNSLRAEDTAVYYCATNDDYWGQGTLVTVSS
VL: EIVLTQSPATLSLSPGERATLSCRASQSVSSYLAWYQQKPGQAPRLLIYDASNRATGIPARFSGSGSGTDFTLTISSLEPEDFAVYYCQQSCNWPRTFGQGTKVEIKR
As to B5, in the test with PD-1 [1], the “binding activity (OD after mutation/OD wild type)” value fell in the range of 90 to 110%.

B6: anti-PD-1 antibody 2 HC Gly26Cys (antibody, human IgG4 S228P, kappa, V domains shown)
VH: QVQLVESGGGVVQPGRSLRLDCKASCITFSNSGMHWVRQAPGKGLEWVAVIWYDGSKRYYADSVKGRFTISRDNSKNTLFLQMNSLRAEDTAVYYCATNDDYWGQGTLVTVSS
VL: EIVLTQSPATLSLSPGERATLSCRASQSVSSYLAWYQQKPGQAPRLLIYDASNRATGIPARFSGSGSGTDFTLTISSLEPEDFAVYYCQQSSNWPRTFGQGTKVEIKR
modifications: arm on Cys26 as named in each row
Turning to B6, the figures for the “binding activity, % of wild type” value in the test with PD-1 [2], with PD-1 [3] and in the test with PD-1 [4] were 95.4%, 11.7% and 31.8%, respectively.

B7: anti-PD-1 antibody 2 light chain T56C (antibody, human IgG4 S228P, kappa, V domains shown)
VH: QVQLVESGGGVVQPGRSLRLDCKASGITFSNSGMHWVRQAPGKGLEWVAVIWYDGSKRYYADSVKGRFTISRDNSKNTLFLQMNSLRAEDTAVYYCATNDDYWGQGTLVTVSS
VL: EIVLTQSPATLSLSPGERATLSCRASQSVSSYLAWYQQKPGQAPRLLIYDASNRACGIPARFSGSGSGTDFTLTISSLEPEDFAVYYCQQSSNWPRTFGQGTKVEIKR
For B7, the “binding activity (OD after mutation/OD wild type)” value in the test with PD-1 [1] was 90 to 110%.

B8: anti-PD-1 antibody 2 HC Ala24Cys (antibody, human IgG4 S228P, kappa, V domains shown)
VH: QVQLVESGGGVVQPGRSLRLDCKCSGITFSNSGMHWVRQAPGKGLEWVAVIWYDGSKRYYADSVKGRFTISRDNSKNTLFLQMNSLRAEDTAVYYCATNDDYWGQGTLVTVSS
VL: EIVLTQSPATLSLSPGERATLSCRASQSVSSYLAWYQQKPGQAPRLLIYDASNRATGIPARFSGSGSGTDFTLTISSLEPEDFAVYYCQQSSNWPRTFGQGTKVEIKR
modifications: arm on Cys24 as named in each row
B8: the figures for the “binding activity, % of wild type” value with PD-1 [2], with PD-1 [3] and with PD-1 [4] were 99.6%, 32.3% and 45.6%, respectively.

B9: anti-PD-1 antibody 2 HC Gly9Cys (antibody, human IgG4 S228P, kappa, V domains shown)
VH: QVQLVESGCGVVQPGRSLRLDCKASGITFSNSGMHWVRQAPGKGLEWVAVIWYDGSKRYYADSVKGRFTISRDNSKNTLFLQMNSLRAEDTAVYYCATNDDYWGQGTLVTVSS
VL: EIVLTQSPATLSLSPGERATLSCRASQSVSSYLAWYQQKPGQAPRLLIYDASNRATGIPARFSGSGSGTDFTLTISSLEPEDFAVYYCQQSSNWPRTFGQGTKVEIKR
modifications: arm on Cys9 as named in each row
Consider B9, for which the “binding activity, % of wild type” value with PD-1 [2] is 97.8%; with PD-1 [3], 24.6%; with PD-1 [4] it was 87.4%.

B10: anti-PD-1 antibody 2 HC Ala40Cys (antibody, human IgG4 S228P, kappa, V domains shown)
VH: QVQLVESGGGVVQPGRSLRLDCKASGITFSNSGMHWVRQCPGKGLEWVAVIWYDGSKRYYADSVKGRFTISRDNSKNTLFLQMNSLRAEDTAVYYCATNDDYWGQGTLVTVSS
VL: EIVLTQSPATLSLSPGERATLSCRASQSVSSYLAWYQQKPGQAPRLLIYDASNRATGIPARFSGSGSGTDFTLTISSLEPEDFAVYYCQQSSNWPRTFGQGTKVEIKR
modifications: arm on Cys40 as named in each row
For B10, the “binding activity, % of wild type” value came out at 85.3% with PD-1 [2], 37.2% in the test with PD-1 [3] and 50.3% with PD-1 [4].

B11: anti-PD-1 antibody 2 HC Gly8Cys (antibody, human IgG4 S228P, kappa, V domains shown)
VH: QVQLVESCGGVVQPGRSLRLDCKASGITFSNSGMHWVRQAPGKGLEWVAVIWYDGSKRYYADSVKGRFTISRDNSKNTLFLQMNSLRAEDTAVYYCATNDDYWGQGTLVTVSS
VL: EIVLTQSPATLSLSPGERATLSCRASQSVSSYLAWYQQKPGQAPRLLIYDASNRATGIPARFSGSGSGTDFTLTISSLEPEDFAVYYCQQSSNWPRTFGQGTKVEIKR
modifications: arm on Cys8 as named in each row
Regarding B11, the “binding activity, % of wild type” value turned out to be 93.2% in the test with PD-1 [2], 34.2% with PD-1 [3] and 78.3% in the test with PD-1 [4].

B12: anti-PD-1 antibody 2 HC Gly15Cys (antibody, human IgG4 S228P, kappa, V domains shown)
VH: QVQLVESGGGVVQPCRSLRLDCKASGITFSNSGMHWVRQAPGKGLEWVAVIWYDGSKRYYADSVKGRFTISRDNSKNTLFLQMNSLRAEDTAVYYCATNDDYWGQGTLVTVSS
VL: EIVLTQSPATLSLSPGERATLSCRASQSVSSYLAWYQQKPGQAPRLLIYDASNRATGIPARFSGSGSGTDFTLTISSLEPEDFAVYYCQQSSNWPRTFGQGTKVEIKR
modifications: arm on Cys15 as named in each row
On to B12, for which the entries for the “binding activity, % of wild type” value with PD-1 [2], with PD-1 [3] and in the test with PD-1 [4] were 85.6%, 21.5% and 32.5%, respectively.

B13: anti-PD-1 antibody 2 HC Ala88Cys (antibody, human IgG4 S228P, kappa, V domains shown)
VH: QVQLVESGGGVVQPGRSLRLDCKASGITFSNSGMHWVRQAPGKGLEWVAVIWYDGSKRYYADSVKGRFTISRDNSKNTLFLQMNSLRCEDTAVYYCATNDDYWGQGTLVTVSS
VL: EIVLTQSPATLSLSPGERATLSCRASQSVSSYLAWYQQKPGQAPRLLIYDASNRATGIPARFSGSGSGTDFTLTISSLEPEDFAVYYCQQSSNWPRTFGQGTKVEIKR
modifications: arm on Cys88 as named in each row
As to B13, the “binding activity, % of wild type” value was determined as 84.3% in the test with PD-1 [2], 27% in the test with PD-1 [3] and 46.8% with PD-1 [4].

(Values after US20230158141A1 (YAFEI SHANGHAI BIOLOG MEDICINE SCIENCE AND TECHNOLOGY, published 2023).)
